Results from PMC7515635 (eLife, 2020).
Values joined by “and” are separate entries in the source; they are usually repeats but may differ in a detail not shown here. Equal values may be shown once.

B3: HIS6-AtC53 (natural protein)
chain: not shown
notes: C53, Arabidopsis thaliana; Monomeric by native MS; source: E. coli Rosetta2(DE3)pLysS, purified (HisTrap, ion exchange, SEC)

Assays:
Conditions in all cases: both partners purified
HIS6-GABARAP = molecular target: T1, HIS6-GABARAP (human, UniProt O95166 1-117); assay: ITC; 25°C, 50 mM sodium phosphate pH 7.0, 100 mM NaCl; cell 40 µM GABARAP or ATG8A, syringe 600 µM peptide or 250 µM IDR; one-set-of-sites model
T1 construct: GABARAP, human ATG8 isoform; source: E. coli Rosetta2(DE3)pLysS, purified (HisTrap, ion exchange, SEC)

HIS6-ATG8A [1] = molecular target: T2, HIS6-ATG8A (Arabidopsis thaliana, UniProt Q8LEM4 1-117); assay: as above
T2 construct: ATG8A, Arabidopsis thaliana; source: E. coli Rosetta2(DE3)pLysS, purified (HisTrap, ion exchange, SEC)
T2 sequence (looked up): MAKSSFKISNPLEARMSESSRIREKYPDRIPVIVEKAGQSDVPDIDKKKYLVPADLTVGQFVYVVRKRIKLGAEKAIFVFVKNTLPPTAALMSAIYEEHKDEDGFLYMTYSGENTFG

HIS6-ATG8A [2] = molecular target: T2, HIS6-ATG8A; assay: native MS; proteins exchanged into ammonium acetate, nanoelectrospray, Synapt G2Si; C53 1-5 µM or IDR 2.5 µM with 5-20 µM ATG8A or GABARAP
HIS6-HsC53 = molecular target: T3, HIS6-HsC53 (human, UniProt Q96JB5 1-506); assay: SPR; competition, apparent; GST-GABARAP or GST-ATG8A captured; increasing AIM wt peptide premixed with 10 µM HsC53 or AtC53; 25°C, 50 mM sodium phosphate pH 7.0, 100 mM NaCl, 0.05% Tween-20, 0.1% BSA
T3 construct: C53 (CDK5RAP3), human; Monomeric by native MS; source: E. coli Rosetta2(DE3)pLysS, purified (HisTrap, ion exchange, SEC)

HIS6-AtC53 = molecular target: B3; assay: as above
Sequence of HIS6-AtC53 (Q9FG23 whole entry): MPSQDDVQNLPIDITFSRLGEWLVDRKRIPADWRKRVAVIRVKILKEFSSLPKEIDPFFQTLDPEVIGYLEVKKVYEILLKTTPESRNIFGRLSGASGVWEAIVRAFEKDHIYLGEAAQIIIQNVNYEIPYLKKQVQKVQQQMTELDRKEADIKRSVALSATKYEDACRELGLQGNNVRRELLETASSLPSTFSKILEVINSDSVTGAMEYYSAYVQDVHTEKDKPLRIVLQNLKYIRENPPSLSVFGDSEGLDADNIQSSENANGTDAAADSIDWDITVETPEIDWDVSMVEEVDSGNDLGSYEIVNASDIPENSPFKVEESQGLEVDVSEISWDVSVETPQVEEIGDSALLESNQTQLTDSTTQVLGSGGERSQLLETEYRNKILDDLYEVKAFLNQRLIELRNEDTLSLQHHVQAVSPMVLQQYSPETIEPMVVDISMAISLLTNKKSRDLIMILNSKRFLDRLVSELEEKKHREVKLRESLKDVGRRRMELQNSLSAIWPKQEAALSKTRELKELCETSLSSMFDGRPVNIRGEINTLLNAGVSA

T3 sequence (Q96JB5 whole entry): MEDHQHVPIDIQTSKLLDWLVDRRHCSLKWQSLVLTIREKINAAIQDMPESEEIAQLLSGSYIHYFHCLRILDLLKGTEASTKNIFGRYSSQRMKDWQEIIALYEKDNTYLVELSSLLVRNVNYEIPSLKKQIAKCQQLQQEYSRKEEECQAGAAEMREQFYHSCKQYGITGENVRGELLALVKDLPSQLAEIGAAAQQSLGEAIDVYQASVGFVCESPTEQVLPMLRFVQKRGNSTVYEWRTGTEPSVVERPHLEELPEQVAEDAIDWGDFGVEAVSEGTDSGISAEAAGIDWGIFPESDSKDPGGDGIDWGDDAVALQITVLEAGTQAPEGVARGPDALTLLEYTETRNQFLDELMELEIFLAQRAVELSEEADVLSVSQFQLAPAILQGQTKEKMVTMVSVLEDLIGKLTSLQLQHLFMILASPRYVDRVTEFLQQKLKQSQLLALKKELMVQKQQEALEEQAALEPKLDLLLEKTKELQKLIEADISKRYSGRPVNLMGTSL

B1: Hs-sAIM peptide (peptide)
peptide: EPLDFDIDWGLEEEM
notes: peptide with a shuffled AIM (IDWG) in the frame of the AIM wt peptide; also called Hs-sAIMC53
HIS6-GABARAP
  binding result: binds

B2: At-sAIM peptide (peptide)
peptide: EPLDFDIDWDLEEEM
notes: peptide with a shuffled AIM (IDWD) in the frame of the AIM wt peptide
HIS6-ATG8A [1]
  binding result: binds

## B3
HIS6-ATG8A [2]
  stoichiometry N: 1 ATG8A per AtC53 and 2 ATG8A per AtC53

B4: AtC53-IDR (purified) (domain or fragment, Arabidopsis thaliana, UniProt Q9FG23 264-341, looked up)
chain: ANGTDAAADSIDWDITVETPEIDWDVSMVEEVDSGNDLGSYEIVNASDIPENSPFKVEESQGLEVDVSEISWDVSVET
notes: intrinsically disordered region of Arabidopsis C53; The expected mass (about 80 residues) is too small for 239-372, the limits of MBP-AtC53^IDR; source: E. coli Rosetta2(DE3)pLysS, purified
HIS6-ATG8A [2]
  stoichiometry N: 1 ATG8A per AtC53-IDR and 2 ATG8A per AtC53-IDR and 3 ATG8A per AtC53-IDR

B5: GST-GABARAP (natural protein, human, UniProt O95166 1-117, looked up)
chain: MKFVYKEEHPFEKRRSEGEKIRKKYPDRVPVIVEKAPKARIGDLDKKKYLVPSDLTVGQFYFLIRKRIHLRAEDALFFFVNNVIPPTSATMGQLYQEHHEEDFFLYIAYSDESVYGL
notes: GABARAP, human ATG8 isoform; printed MW of GST-GABARAP 42458.87 Da; source: E. coli recombinant expression; bacterial lysate (pull-downs), recombinant protein (SPR); not shown: GST, N-terminal, kept
HIS6-HsC53
  binding result: binds

B6: GST-ATG8A (natural protein, Arabidopsis thaliana, UniProt Q8LEM4 1-117, looked up)
chain: MAKSSFKISNPLEARMSESSRIREKYPDRIPVIVEKAGQSDVPDIDKKKYLVPADLTVGQFVYVVRKRIKLGAEKAIFVFVKNTLPPTAALMSAIYEEHKDEDGFLYMTYSGENTFG
notes: ATG8A, Arabidopsis thaliana; printed MW of GST-ATG8A 42366.85 Da; also called AtATG8; source: E. coli recombinant expression; bacterial lysate (pull-downs), recombinant protein (SPR, peptide array); not shown: GST, N-terminal, kept
HIS6-AtC53
  binding result: binds
